Laboratory results from patent US10781452B2, “FLT3 receptor antagonists for the treatment or the prevention of pain disorders” (INSTITUT NATIONAL DE LA SANTE ET DE LA RECHERCHE MEDICALE …, priority 2010, dated 2020).

Target: T1, full-length hFLT3 (Homo sapiens, UniProt P36888)
T1 construct: host or cells: HEK293T
T1 sequence (P36888 27-993): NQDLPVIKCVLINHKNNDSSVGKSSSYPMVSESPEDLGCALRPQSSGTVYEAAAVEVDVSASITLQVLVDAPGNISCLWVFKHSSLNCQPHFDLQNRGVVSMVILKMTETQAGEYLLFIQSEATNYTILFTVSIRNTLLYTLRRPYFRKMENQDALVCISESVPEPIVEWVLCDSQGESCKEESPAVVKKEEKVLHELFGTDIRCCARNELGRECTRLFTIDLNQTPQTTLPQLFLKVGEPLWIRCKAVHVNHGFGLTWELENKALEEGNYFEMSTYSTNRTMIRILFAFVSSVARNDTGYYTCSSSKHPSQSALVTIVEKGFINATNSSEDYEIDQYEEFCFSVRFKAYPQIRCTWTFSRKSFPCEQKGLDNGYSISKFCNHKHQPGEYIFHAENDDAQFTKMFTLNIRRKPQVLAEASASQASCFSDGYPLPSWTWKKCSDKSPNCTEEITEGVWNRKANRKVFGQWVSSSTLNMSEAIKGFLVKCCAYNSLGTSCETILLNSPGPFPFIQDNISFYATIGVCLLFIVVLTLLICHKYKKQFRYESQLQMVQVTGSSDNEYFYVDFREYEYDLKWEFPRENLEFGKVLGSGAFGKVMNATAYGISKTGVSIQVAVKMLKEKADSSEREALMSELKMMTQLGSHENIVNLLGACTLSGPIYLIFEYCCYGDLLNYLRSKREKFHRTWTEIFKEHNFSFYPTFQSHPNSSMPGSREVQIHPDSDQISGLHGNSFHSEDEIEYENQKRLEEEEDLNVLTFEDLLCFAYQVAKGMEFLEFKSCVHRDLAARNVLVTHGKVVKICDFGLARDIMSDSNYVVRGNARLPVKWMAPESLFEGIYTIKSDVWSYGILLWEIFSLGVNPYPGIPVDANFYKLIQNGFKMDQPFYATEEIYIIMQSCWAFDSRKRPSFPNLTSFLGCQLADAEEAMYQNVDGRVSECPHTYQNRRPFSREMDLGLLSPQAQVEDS
Assay: TR-FRET displacement of Red-FL binding, HEK cells expressing full-length hFLT3
Conditions: HEK cells expressing full-length hFLT3, 0.5 nM Red-FL
Experimental: The binding of the A3 antibody to full-length hFLT3 and mFLT3 was measured by displacement of extracellular FL binding on recombinant HEK cells by using time-resolved fluorescence resonance energy transfer (TR-FRET).
Chemicals and reagents. The Tag-lite® labeling medium was from Cisbio Bioassays (Condolet, France). The Lumi4-Tb derivative of O6-Benzylguanine was synthesized by Cisbio Bioassays and is commercialized as SNAP-Lumi4-Tb (Cisbio Bioassays, Ref. SSNPTBE).
A recombinant rh-FLT3-L was produced as previously reported (Verstraete K, et al. Efficient production of bioactive recombinant human Flt3 ligand in E. coli. Protein J, 2009 28: 57-65) and labeled with a red fluorescent probe (Red-FL). Poly-L-ornithine (MW of 30,000-70,000 daltons) was from Sigma-Aldrich. The plasmids encoding for the SNAP tagged human FLT3 (pSNAP-hFLT3) or the mouse FLT3 (pSNAP-mFLT3) used for transient transfection was obtained from Cisbio Bioassays. Monoclonal antibodies against FLT3 (8F2) and phosphotyrosine FLT3 (PY969) were purchased from Cell Signaling Technology and labeled with Lumi4-Tb and d2 respectively, by Cisbio.
Cell culture. HEK293T cells, used for binding assays, were maintained in DMEM Glutamax (Invitrogen) supplemented with antibiotics (penicillin 50 U/ml, streptomycin 50 μg/ml) and 10% heat-inactivated Fetal Calf Serum.
Transfection procedures. […]

B1: A3 antibody: human monoclonal antibody against FLT3; VH SEQ ID NO:1, VL SEQ ID NO:2 (antibody, V domains shown)
VH: EVQLVESGGSLVKPGGSLRLSCAASGFTFSNSYMNWVRQAPGKGLEWISDISGSSRDIDYADFVKGRFTISRDNATNSLYLQMNSLRAEDTAVYYCVRSGNSGMDVWGRGTLVTVSS
VL: QSVLTQPASVSGSPGQSITISCAGTSSDVGGGYYVSWYQQHPGKAPKLMIYYDSYRPSGVSNRFSGSKSGNTASLTISGLQAEDEADYYCSSYTNNSTRVFGGGTKLEIK
modifications: Synthetic VH domain of A3; Synthetic VL region of A3
  IC50, displacement of FL binding: about 17 μg/ml
